Experimental data from a protein production outcome set (Wang et al. 2014).

Test: label from the status in PepcDB records

Question: For “MTVAPFDTAKLDRLMEEAGIDVIAATSKHNTQYLMGGYKFIFFAAMDAIGHSRYLPMVIYEKGAPDHSAYVGNRMEGAEHQNNPFWTPAVHTATWGTQDAAGLAVEHLKKIGKASGRIGIEPAFLPSDARDLLASRLDGARFVDATHVLERLRAVKTADELAKLRRASELITDSMLATIAAARAGSTKLEIIEQLRREETNRGLHFEYCLLTLGASHNRAGSPQAWAEGEILSIDSGGNYHGYIGDLCRMGVLGEPDAELEDLLAEVERIQQAAFAKVRAGVLGSEMIVAAEAELKASPSAAFTDFFCHGMGLITHEAPFLMTNHPVAYEGIDADKPLEAGNVISVETTMLHPKRGFIKLEDTLAITDKGYEMFGDRGRGLEHHHHHH”, which protein production is on record?
Answer: failed

Question: Which protein production does the source give for “MTVAQQAPSALNFDCETGNYHTFCPISCVSWLYQKIEDSFFLVIGTKTCGYFLQNAMGVMIFAEPRYAMAELEEGDISAQLKDYEELKRLCLQIKRDRNPSVIVWIGTCTTEIIKMDLEGLAPQLEAEIGIPIVTARANGLDYAFTQGEDTVLASMAHKCPTSAQVQGEDKEERNAIQKLLTFGRKADQEKVESEYVDHQPLVLFGSLPDPVVTNLTLELKKQGVKVSGWLPAKRYTELPVIDEGYYVAGVNPFLSRTATTLMRRRKCKLIGAPFPIGPDGTRAWIEKICSVLGIEPQGLEEREAQIWASLEDYIQLIRGKSVFFMGDNLLEVSLARFLIRCGMTCPEIGIPYMDKRYQAAELALLEKTCSDMGVPLPNIVEKPDNYNQIQRIKALQPDLVITGMAHANPLEAQGINTKWSVEFTFAQIHGFTNARDILELATRPLRRNSQLGELGWDKLIAKDVPAQV” here?
Answer: failed

Question: With “MTVITLVLGMLLPAVVSILMLMASTQSRISEEENMMRAGLVEGMGLQVDEVVDALAQSLEVIAANGGADADDATRWTRLLQASRAFGKQFLEFHVANPNGDVISSSASLPEGINVADRAYFSTSLATEGMVASEGLVSRHTGQIALYFALAVRSDEEAHSGVVFAGFNGEVFGDMLRKAGPRSDGLTVFVLDRNGDSVYEHLPSGGRHPVHIPPADLRDCADGRRAWLEFGGTRHAVSVMAKRLATGEAPYLYLLVSTPDESFFSLSTLRGVTPLLLGTLCVALAALAAANRRIVHPLESLTRKVQAIEAGQPLPETAMESVREIGGLQTAVTRMAQAISQREQELAWFATHDDLTGLANRKALHEMLAARLDRLEEGASETVAVIFIDIDRFKAINDSMGHTWGDNVIAAFAARLGAFMHPLHAFCARVGGDEFVVVPDASATHNVVRDTRALLAHLGTPYDINGREVRLSASAGVLFVGDPGESPDVIIRNANAAMHRSKERGFGRISIFRPLHLDSYMLRLDIERELPLAAATGQLHMVYQPIVNASDGSLHSFEALMRWNHPRHGSLSPATFITVAEQTGHVGLLGDFALREAGACVRRFGEAGLLTPGLRFGVNISPAHLMAQDFLSDIESVLDAVSVPGDRITLEVTESALISTGAELMGRLETLAKRGLNFAIDDYGAGYSNIQYLASEHFRVIKIDKSLIDEVHLRDRMRAIVRSTVQLAHSLGCKIVAEGVETHAQANLLARLGCDYLQGYLFSRPVPETDAMRLAIRAMDQGTLLPPEAHPDA” as the sequence, how does the protein production read?
Answer: failed

Question: For “MTVKAMALNTNQLFAYLNRGDIAEFKFSPLFTTLFFPNVATFSTQNIMLDTLDIEEVTMSAFCSPMVGSQVQRDKGYETSTIKPGYMKPKHEIDPTKTIMRMAGEDPAQLNDPTYRRMRLITGNMRRQINAIKARVEWLAVNAVTTGKNIIEGEGIERYEIDWKIPEKNIIEQADGKKWSEQDKETHYPIYDIELYADQAGCPANVMIMGAEVWRTLRSFKKFRELYDLSRGSESAAELACKNLGEVVSFKGYLGDLALIVYSGKYTDSDGTEKYFLEPDLLVLGNTNNKGLVAYGAIMDQEAVRTGATQNMFYPKNWIEDGDPAIEYVQTHSAPQPVPADIRKFVTVKIA”, which protein production is on record?
Answer: not failed

Question: With “MTVLYKGSLKQNNDPFHVTLLSKEHIEQILFLQNVVVEGLEDKSRLQPLSQEEFQYILEGNGMMIGAFIKNELIAFRALLVPPIDDEHLGLDIGLPESELHRVIYQEISNVHPNCRGNGMQKILATVIMDELQKENGKYDYVCCTVAPFNIPSLKDKFSQGMEIAALKEKYGGSMRYVFVKELREDKEKDWTEIKSVPMNNAGGQQALLSEGYRGYEMEKVDEDFVVKFGR” as the sequence, how does the protein production read?
Answer: failed

Question: Which protein production does the source give for “MTVNVENVEPELNIEIGPNWFASVMGTGIIANAAVGLPMVGQYLGQAGLVIWVIASLMLIVMLLLKAVQTITNPHIIKRQFNDPVMAQFFGAPPMALLTIAGGTLLFGHHFFAQDTLMVIAWSLWITGTIVGMMTAVIIPYRLFTHHEVRGDAAFGGWLMPVVPPMVSAAIGAMFIPHVQDTLLQQTLLYACYAMFGTSLIAAMIILTLIWGRLVHSGTSGGARVPTLWLVLGPLGQSITAAGALGAVALAVVEQPIAGSLNTMAILYGVPVWGFAFYWSILASFLTLRALRRKMPFALTWWAFTFPVGTCVTGTTQLALHTGLPAFEWAAVILFAGLLCAWVIAALGTIKGIKTGHIMKNPVSSPVIIAKKGPR” here?
Answer: failed

Question: With “MTVRVCKMDGEVMPVVVVQNATVLDLKKAIQRYVQLKQEREGGVQHISWSYVWRTYHLTSAGEKLTEDRKKLRDYGIRNRDEVSFIKKLGQK” as the sequence, how does the protein production read?
Answer: not failed

Question: Which protein production does the source give for “MTVTATSVDEPEQLEPQAAPASRGARRVRRLVPAAAATLSGVLLYVSFPPRTLWWLALPAFAVLGWALRDRTWKAGLGLGYLFGLGFLLPLLVWTGVEVGPGPWLALAVVEAVFVALVGAGIAMVSRLPAWPLWAAALWIAGEAARARAPFGGFPWGKIAFGQADGVFLPLAAAGGTPVLGFAVVLCGFGLYEIVRQVVDGRRTGVVRRGAAAVALLSVAVPVVGALAARSLVSDKAEDGTATVAVIQGNVPRSGLEFNAQRRAVLDHHARETERLAAKIKAGKVAQPDFVLWPENSSDIDPFTNPDARAVIDSAAKAVGVPISVGGVVERDGKLYNEQILWDPAKGALDTYDKRQVQPFGEYLPLRSLLGAINKNWTSMVRQDFSRGTEPGVFTMAGTKVGLATCYEAAFDWAVRDNITHGAQIISVPSNNATFDRSEMTYQQLAMSRVRAVEHSRTVTVPVTSGVSAVIMPDGKITQKTGMFVADSLVQKVPLRSSQTPATRLGILPEMVLVLVAAGGLGWSVAAVVRGRRNDALQG” here?
Answer: failed

Question: With “MTVWRSWRLLGVSGDSKPTDGPVSRFLNRRIASAIASAIIALNLPLTPNMLSLISFLTAAAAALFIAGGQLLVGGLLVQLSSVLDGVDGIVARRLRAASKAGGFLDTMLDRYADTVIYLALAYAAVATHGLETWAVLTAVLAVSGDIMVSYLHTRGERDAGVHPSLVGPLDSLASRDVRLLIVAVITAAGRPLEAMAAVALLSHAYVAVKSIYLFSLLKSKGV” as the sequence, how does the protein production read?
Answer: failed

Question: For “MTWKPNVTVAAVIEQDDKYLLVEEIPRGTAIKLNQPAGHLEPGESIIQACSREVLEETGHSFLPEVLTGIYHWTCASNGTTYLRFTFSGQVVSFDPDRKLDTGIVRAAWFSIDEIRAKQAMHRTPLVMQCIEDYHAGKRYPLDILQYYD”, which protein production is on record?
Answer: not failed

Question: For “MTWLPFIIIIPLFGAFSMPIVSLLKGKAKEIWATIISFTTLMVGIQVFREVWNRGTIVYALGSETPFGKANFPIRIVWEVDKFGAIMVLIITLVSFLAVLYSIEYMKHDTGLEKYYTLILILELGMLGIAITGDIFNFYVFLEIMSIASYALVAFRNDTWEAIEAGIKYMFVGSLASSLVLLGIALLYGQYGTLTMGYLAVKMSENPTIVAKIALSLFLGGLLFKSGASPVHMWLADAHPAAPSSISAMLSGLVIKVGGIYAIARVVFSIFLPAINLATVGWLVIIFACITLIVGNAMAVVQEDMKRLLAYSSVGQIGYILLGLGIGMVAYGSKIGELALAGAIYHIVNHAMMKALLFLVAGAVLHELGTRNLNELSGLAKTMPKTTFAFLIGAAAIVGMPPLNGFASKWLIYESSALFNPIIGSIAIIGTAFCTAAYVRVLFTFFGRPNEKVMRAKDPGALMLIPMFILVIAIILMGIFPWQISDKIMIPAARNLWDITSYVMTLMGGG”, which protein production is on record?
Answer: failed

Question: For “MTYEAGCGLIKALEDPDNRVRQRAVKTLGKRGNPDVLEDLMEALKDSRQPVQEAASEALRKIIAASDSVPVLVKALDATDRNVRKAAIEALWKAGTPEAIPPLLRELDDADWYLRSRAADALADIASPEAALGLIKVMDIHDSPVKKIIVNALGKIGTVEAVEGLVKALEDLEHHHHHH”, which protein production is on record?
Answer: failed

Question: For “MTYFASDFQDLDNSGNIENFIRCLELQQSLDLYKYYKQKTFEKMQLKPGDSVLEVGCGTGNDALLLANYVGETGKVTAVDRSQFMLDQARERAKNSTTKFEFVLADAEQLPFPGANFTAARVDRTLQHIAQPQKAIAEMARVVQSNGWVVAFEPDWETLVIDSDQRGVTRAITNFWCDNFPSGWVGRYLFKYFRQAGLTDIAVDPITICLTEFELADKILDLSRTVEKISEQGTISQNDLTLWFKAIDQNDQAGEFFCAFTAFLVRGRKP”, which protein production is on record?
Answer: failed

Question: With “MTYKITTSESKKEYLYMGSGDTRGESSLVAKPIEIILNKLPHAILAQQQFQKYITSPIYRYLSKLLLFREVAWPESTKDTQKGQVGIFSFQNNYADSATTFRILAHLDEHGYPLPNGAAEKNLPSLFEGFKATVSIIQQRLLLDNVDGATNSDKEKYVQLPDINTGFVNKTYSRIDLTHLLEDVETNVENLSINKTLEMDELTRLDSMINELESRKLKILERVKHIDSKSTNLENDVTLIKDRINFIEEYNLEADREQSLRKQMEEERSSEASSFTQNEEAISSLCDVESKDTRLKDFYKMPHEKSHDKNRQIISETYSRNTTAFRMTIPHGEHGNSITALDFDTPWGTLCSSSYQDRIVKVWDLNHGIQVGELPGHLATVNCMQIDKKNYNMLITGSKDATLKLWDLNLSREIYLDHSPLKEKTEEIVTPCIHNFELHKDEITALSFDSEALVSGSRDKKIFHWDLTTGKCIQQLDLIFTPTHSDIKMPARSLNNGACLLGTEAPMIGALQCYNSALATGTKDGIVRLWDLRVGKPVRLLEGHTDGITSLKFDSEKLVTGSMDNSVRIWDLRTSSILDVIAYDLPVSSLDFDGKLITVGANEGGVNVFNMERDEHWMTPEPPHSLDGDELSRRIAIVKYKDGFLINGHNDGDINVWTL” as the sequence, how does the protein production read?
Answer: failed

Question: Which protein production does the source give for “MTYLVTGATGGLGGYALNYLKELVPMSDIYALVRSKEKGADLKAAGFNIRVGDYSDAESMKQAFAGIDRVLFVSGAPGNRQVEHENVINAAKKAGVSYIAYTSFAGADKSTSALAEDHFFTEKVIEKSGIAHTFLRNNWYFENEMPMIGGALSAGKFVYAAENGKVGWALKREYAEVAAKAVAGAGFPEILELSGPLMTYEELTKALKEATGKDFDVISSDDKGFVENLVSVGLPQPVAEMFLSFQHDIKNDQLDVTSDDFEKALGKPLTNRVDALRELLKLEHHHHHH” here?
Answer: not failed

Question: Which protein production does the source give for “MTYLVTGATGGLGGYALNYLKELVPMTDIYALVRSEEKGADLKAAGFNIRIGDYSDAESMKQAFAGIDRVLFVSGAPGNRQVEHENVVNTAKEAGVSYIAYTSFADADNSTSALAADHIFTEKVIEKSGIEHTFLRNNWYFENEMPMIGGALNGGKFVYAAGNGKTGWALKREYAEVAAKAVAGARFPEILELSGPVMTYAELTEALKEATGKDFEVISSDDKGFVENLVNVGMPQPVAEMFLSFQHDIKNNQLDVTSGDFEKALGKPLTNRVDALRELLQ” here?
Answer: failed

Question: Which protein production does the source give for “MVADKSKKSKIEEKGEEENLEQIDAELVLSIEKLQEIQDDLEKINEKASDEVLEVEQKYNVIRKPVYDKRNEVIQSIPGFWMTAFLSHPALGDLLTEEDQKIFKYLNSLEVEDAKDVKSGYSITFHFTSNPFFEDAKLTKTFTFLEEGTTKITATPIKWKEGKGLPNGVNHDDKKGNKRALPEESFFTWFTDAQHKEDAGDEIHDEVADIIKEDLWSNPLTYFNNDADEEDFDGDDDGDEEGEEDDDDEEEEDGEE” here?
Answer: failed

Question: For “MVAKQLSIFLENKSGRLTEVTEVLAKENINLSALCIAENADFGILRGIVSDPDKAYKALKDNHFAVNITDVVGISCPNVPGALAKVLGFLSAEGVFIEYMYSFANNNVANVVIRPSNMDKCIEVLKEKKVDLLAASDLYKL”, which protein production is on record?
Answer: not failed
